Earlier results on one substance are cited in paper PMC6430685.

Usually pKd stands for the Kd on a negative log10 scale, so that one unit is a factor of ten.

This series deals with BAX (Homo sapiens) (UniProt Q07812).

pKd: −log10 of the molar value.

Chain of BAX (Homo sapiens) (Q07812 whole entry): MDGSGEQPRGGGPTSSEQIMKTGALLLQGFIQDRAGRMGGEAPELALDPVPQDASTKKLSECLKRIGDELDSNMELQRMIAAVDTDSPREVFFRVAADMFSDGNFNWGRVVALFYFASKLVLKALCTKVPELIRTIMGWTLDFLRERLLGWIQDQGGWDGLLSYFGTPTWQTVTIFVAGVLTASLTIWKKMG
Chain of vMIA (P16778 23-487): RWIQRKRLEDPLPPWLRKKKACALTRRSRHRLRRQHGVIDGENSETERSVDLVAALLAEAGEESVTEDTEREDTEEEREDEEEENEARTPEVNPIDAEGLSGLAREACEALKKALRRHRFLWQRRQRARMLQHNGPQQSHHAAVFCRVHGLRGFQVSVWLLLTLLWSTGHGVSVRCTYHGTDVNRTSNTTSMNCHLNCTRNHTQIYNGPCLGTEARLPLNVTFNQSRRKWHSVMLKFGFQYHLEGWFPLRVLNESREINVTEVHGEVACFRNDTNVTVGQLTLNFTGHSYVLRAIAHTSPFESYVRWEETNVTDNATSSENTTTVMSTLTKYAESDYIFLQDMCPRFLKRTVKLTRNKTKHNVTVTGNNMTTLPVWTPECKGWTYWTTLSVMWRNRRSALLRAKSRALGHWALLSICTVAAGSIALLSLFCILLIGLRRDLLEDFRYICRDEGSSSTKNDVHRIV

With vMIA (from UniProt P16778), the pKd was 6.85.
